Literature values as cited in paper PMC9331257.

Tests used:
[1] = molecular target: PACAP type II receptor (Homo sapiens) (UniProt P32241); experiment: radioligand
[2] = molecular target: PAC1R (Homo sapiens) (UniProt P41586); experiment: radioligand
[3] = molecular target: PACAP type II receptor (Homo sapiens) (UniProt P32241); experiment: radioligand binding
[4] = molecular target: PAC1R (Homo sapiens) (UniProt P41586); experiment: radioligand binding
[5] = molecular target: VPAC2R (Homo sapiens) (UniProt P41587); experiment: [125I]Ac-His1-PACAP27 displacement
Chain of UniProt P41587 (P41587 24-438): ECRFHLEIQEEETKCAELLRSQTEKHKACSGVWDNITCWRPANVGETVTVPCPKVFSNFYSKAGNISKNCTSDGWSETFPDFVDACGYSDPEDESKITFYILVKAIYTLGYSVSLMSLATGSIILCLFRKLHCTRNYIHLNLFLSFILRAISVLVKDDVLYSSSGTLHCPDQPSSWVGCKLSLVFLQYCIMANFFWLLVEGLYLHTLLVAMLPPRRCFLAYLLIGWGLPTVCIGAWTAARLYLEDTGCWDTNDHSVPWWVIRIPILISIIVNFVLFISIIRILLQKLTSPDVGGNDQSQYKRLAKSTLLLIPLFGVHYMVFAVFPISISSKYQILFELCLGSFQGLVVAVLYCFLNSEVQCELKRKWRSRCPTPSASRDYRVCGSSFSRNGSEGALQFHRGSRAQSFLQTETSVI

[6] = molecular target: PAC1R (Homo sapiens) (UniProt P41586); experiment: [125I]Ac-His1-PACAP27 displacement
[7] = molecular target: VPAC1R (Homo sapiens) (UniProt P32241); experiment: [125I]VIP displacement

Chain of UniProt P41586 (P41586 21-468): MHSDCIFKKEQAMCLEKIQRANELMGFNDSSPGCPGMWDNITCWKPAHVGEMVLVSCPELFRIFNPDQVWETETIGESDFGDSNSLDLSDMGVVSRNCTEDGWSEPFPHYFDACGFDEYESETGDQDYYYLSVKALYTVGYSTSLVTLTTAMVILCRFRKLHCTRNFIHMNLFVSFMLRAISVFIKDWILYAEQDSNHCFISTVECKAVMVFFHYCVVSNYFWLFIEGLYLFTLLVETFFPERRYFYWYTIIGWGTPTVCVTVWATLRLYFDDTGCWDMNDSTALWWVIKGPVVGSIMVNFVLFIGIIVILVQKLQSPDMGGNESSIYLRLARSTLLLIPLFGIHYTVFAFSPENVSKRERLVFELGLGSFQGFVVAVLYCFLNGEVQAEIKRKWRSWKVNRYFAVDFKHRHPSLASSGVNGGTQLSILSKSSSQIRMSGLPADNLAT
Chain of VIP (P01282 125-152): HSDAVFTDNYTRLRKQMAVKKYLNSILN
Chain of PACAP (P18509 82-129): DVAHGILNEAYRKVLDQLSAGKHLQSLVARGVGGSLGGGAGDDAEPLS

Which Kd [1] does the source give for VIP (from UniProt P01282) here?
The Kd was 0.5 nM.

What about the Kd [2] of the same substance?
The Kd was greater than 500 nM.

Which Kd [3] does the source give for PACAP (from UniProt P18509) here?
Its Kd is 0.5 nM.

What about the Kd [4] of the same substance?
Its Kd is 0.5 nM.

Which Ki [5] does the source give for PACAP(6-38) 6-38 (from UniProt P18509) here?
The Ki was 40 nM.

What about the Ki [6] of the same substance?
The Ki was 30 nM.

And the Ki [7]?
Its Ki is 600 nM.
